Data taken from PMC1885967, “The Dynamics of Signal Triggering in a gp130-Receptor Complex” (Structure(London, England:1993), 2007).

T1: Extracellular region of murine IL-11 receptor (residues 1-361) (murine, UniProt Q64385 24-361)
T1 construct: signal peptide in the construct; IL-11 receptor, murine, extracellular region, residues 1-361, expressed as a secreted soluble protein; Two copies stand in the hexameric IL-11H complex; also called soluble IL-11R; source: Drosophila S2 cells, stably transfected, secreted; purified from the media (protein A Sepharose, on-column cleavage with rhinovirus 3C protease); not shown: Fc, C-terminal, …
T1 sequence (looked up): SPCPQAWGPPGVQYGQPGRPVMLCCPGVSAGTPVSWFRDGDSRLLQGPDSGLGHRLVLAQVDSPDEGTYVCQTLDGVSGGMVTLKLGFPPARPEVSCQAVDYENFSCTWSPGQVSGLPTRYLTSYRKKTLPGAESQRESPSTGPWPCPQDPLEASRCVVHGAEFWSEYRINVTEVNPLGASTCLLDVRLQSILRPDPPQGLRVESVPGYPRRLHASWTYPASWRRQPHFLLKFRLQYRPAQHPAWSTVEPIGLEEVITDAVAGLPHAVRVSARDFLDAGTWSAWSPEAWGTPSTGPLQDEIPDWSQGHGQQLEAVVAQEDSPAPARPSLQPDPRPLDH

B1: Extracellular region of murine gp130 (residues 1-617) (receptor, UniProt Q00560 23-617, looked up)
chain: QLLEPCGYIYPEFPVVQRGSNFTAICVLKEACLQHYYVNASYIVWKTNHAAVPREQVTVINRTTSSVTFTDVVLPSVQLTCNILSFGQIEQNVYGVTMLSGFPPDKPTNLTCIVNEGKNMLCQWDPGRETYLETNYTLKSEWATEKFPDCQSKHGTSCMVSYMPTYYVNIEVWVEAENALGKVSSESINFDPVDKVKPTPPYNLSVTNSEELSSILKLSWVSSGLGGLLDLKSDIQYRTKDASTWIQVPLEDTMSPRTSFTVQDLKPFTEYVFRIRSIKDSGKGYWSDWSEEASGTTYEDRPSRPPSFWYKTNPSHGQEYRSVRLIWKALPLSEANGKILDYEVILTQSKSVSQTYTVTGTELTVNLTNDRYVASLAARNKVGKSAAAVLTIPSPHVTAAYSVVNLKAFPKDNLLWVEWTPPPKPVSKYILEWCVLSENAPCVEDWQQEDATVNRTHLRGRLLESKCYQITVTPVFATGPGGSESLKAYLKQAAPARGPTVRTKKVGKNEAVLAWDQIPVDDQNGFIRNYSISYRTSVGKEMVVHVDSSHTEYTLSSLSSDTLYMVRMAAYTDEGGKDGPEFTFTTPKFAQGEIE
notes: signal peptide in the construct; gp130, murine, extracellular region (domains D1-D6), residues 1-617, expressed as a secreted soluble protein; Two copies stand in the hexameric IL-11H complex; also called soluble gp130; source: human epithelial kidney 293T cells, transiently transfected, secreted; purified from the media (protein A Sepharose, on-column cleavage with rhinovirus 3C protease); not …

Columns and labels:
Test in all cases: cryo-EM structure; three affinity-purified subunits mixed with IL-11 in molar excess, complex purified by gel filtration (Superdex 200); 5 mM HEPES pH 7.5, 100 mM NaCl, 1 mM DTT, 0.25% β-octylglucopyranoside; 1 mg/ml, vitrified; single-particle reconstruction with C2 symmetry at 30 Å, homology model (IL-6 hexamer plus FNIII repeats) fitted
[1] = biological target: the molecule itself
[2] = biological target: B1; conditions: both partners purified
[3] = biological target: T1, Extracellular region of murine IL-11 …; conditions: both partners purified

Binder | binding result [1] | binding result [2] | binding result [3]
B1 | binds | – | –
Murine Interleukin 11 (residues 22-199) (ligand, UniProt P47873 22-199, looked up, Interleukin 11, murine, residues 22-199, subcloned into pET15b; Two copies stand in the hexameric IL-11H complex; also called IL-11) PGPPAGSPRVSSDPRADLDSAVLLTRSLLADTRQLAAQMRDKFPADGDHSLDSLPTLAMSAGTLGSLQLPGVLTRLRVDLMSYLRHVQWLRRAGGPSLKTLEPELGALQARLERLLRRLQLLMSRLALPQAAPDQPVIPLGPPASAWGSIRAAHAILGGLHLTLDWAVRGLLLLKTRL | – | binds | binds
